The results in this text go back to patent publication US20120058906A1.

Test [1] has as its target Recombinant Human DLL4 (R&D Systems Cat#1506-D4/CF) (human) (UniProt Q9NR61). Nature of the test: MSD ECL multi-spot plate; Fab […]; blank spot 149.
Test [2] has as its target rHuman EGF R/Fc Chimera, CF (R&D Systems Cat#344-ER) (human) (UniProt P00533). Put plainly: MSD ECL multi-spot plate; Fab […]; blank spot 149.
Test [3] has as its target rHuman Notch-1/Fc Chimera, CF (R&D Systems Cat#3647-TK) (human) (UniProt P46531). Nature of the test: MSD ECL multi-spot plate; Fab […]; blank spot 149.
Test [4] concerns the target Recombinant Human DLL4 (R&D Systems Cat#1506-D4/CF) (human) (UniProt Q9NR61). Nature of the test: MSD ECL multi-spot plate; Fab 1570 nM; blank spot 866.
For test [5], the target named is rHuman EGF R/Fc Chimera, CF (R&D Systems Cat#344-ER) (human) (UniProt P00533). The test is described as above.
Test [6] has as its target rHuman Notch-1/Fc Chimera, CF (R&D Systems Cat#3647-TK) (human) (UniProt P46531). Described as above.
Test [7] concerns the target Recombinant Human DLL4 (R&D Systems Cat#1506-D4/CF) (human) (UniProt Q9NR61). Nature of the test: MSD ECL multi-spot plate; Fab 98.1 nM; blank spot 210.
In test [8] the target is rHuman EGF R/Fc Chimera, CF (R&D Systems Cat#344-ER) (human) (UniProt P00533). The description is as above.
Test [9] addresses rHuman Notch-1/Fc Chimera, CF (R&D Systems Cat#3647-TK) (human) (UniProt P46531). The description is as above.
The target in test [10] is Recombinant Human DLL4 (R&D Systems Cat#1506-D4/CF) (human) (UniProt Q9NR61). Nature of the test: MSD ECL multi-spot plate; Fab 392.5 nM; blank spot 338.
The target in test [11] is rHuman EGF R/Fc Chimera, CF (R&D Systems Cat#344-ER) (human) (UniProt P00533). Described as above.
The target of test [12] is rHuman Notch-1/Fc Chimera, CF (R&D Systems Cat#3647-TK) (human) (UniProt P46531). Described as above.
In test [13] the target is rHuman EGF R/Fc Chimera, CF (R&D Systems Cat#344-ER) (human) (UniProt P00533). Put plainly: ECL (MSD multi-spot), Fab 14.5 nM; blank 117.
Test [14] addresses rHuman IGF-1 sR (IGF-1 sR), CF (R&D Systems Cat#391-GR) (human) (UniProt P08069). Put plainly: ECL (MSD multi-spot), Fab 14.5 nM; blank 117.
In test [15] the target is rHuman P-Cadherin/Fc Chimera, CF (R&D Systems Cat#861-PC) (human) (UniProt P22223). Nature of the test: ECL (MSD multi-spot), Fab 14.5 nM; blank 117.
For test [16], the target named is rHuman EGF R/Fc Chimera, CF (R&D Systems Cat#344-ER) (human) (UniProt P00533). Put plainly: ECL (MSD multi-spot), Fab 58.1 nM; blank 225.
In test [17] the target is rHuman IGF-1 sR (IGF-1 sR), CF (R&D Systems Cat#391-GR) (human) (UniProt P08069). Nature of the test: ECL (MSD multi-spot), Fab 58.1 nM; blank 225.
Test [18] concerns the target rHuman P-Cadherin/Fc Chimera, CF (R&D Systems Cat#861-PC) (human) (UniProt P22223). Put plainly: ECL (MSD multi-spot), Fab 58.1 nM; blank 225.
The target in test [19] is rHuman EGF R/Fc Chimera, CF (R&D Systems Cat#344-ER) (human) (UniProt P00533). Nature of the test: ECL (MSD multi-spot), Fab 930 nM; blank 1206.
Test [20] addresses rHuman IGF-1 sR (IGF-1 sR), CF (R&D Systems Cat#391-GR) (human) (UniProt P08069). Put plainly: ECL (MSD multi-spot), Fab 930 nM; blank 1206.
Test [21] concerns the target rHuman P-Cadherin/Fc Chimera, CF (R&D Systems Cat#861-PC) (human) (UniProt P22223). Put plainly: ECL (MSD multi-spot), Fab 930 nM; blank 1206.
Test [22] concerns the target rHuman EGF R/Fc Chimera, CF (R&D Systems Cat#344-ER) (human) (UniProt P00533). Nature of the test: ECL (MSD multi-spot), Fab 232.5 nM; blank 460.
Test [23] concerns the target rHuman IGF-1 sR (IGF-1 sR), CF (R&D Systems Cat#391-GR) (human) (UniProt P08069). Put plainly: ECL (MSD multi-spot), Fab 232.5 nM; blank 460.
The target in test [24] is rHuman P-Cadherin/Fc Chimera, CF (R&D Systems Cat#861-PC) (human) (UniProt P22223). Put plainly: ECL (MSD multi-spot), Fab 232.5 nM; blank 460.

With “Fab VH1-46_IGHD3-10*01_IGHJ4*01 & O1_IGKJ1*01”, the ECL signal is 339 ECL signal in test [1]; 317 ECL signal in test [2]; 434 ECL signal in test [3]; 2700 ECL signal in [4]; 2480 ECL signal in [5]; 1640 ECL signal in [6]. In addition, the ECL signal in [7] was 402 ECL signal; in test [8], 4390 ECL signal; in test [9], 313 ECL signal; in test [10] it was 735 ECL signal; in [11], 744 ECL signal; in test [12] it was 749 ECL signal.

On to “Fab VH1-46_IGHD6-13*01_IGHJ4*01 & O1_IGKJ1*01”, for which the ECL signal came to 357 ECL signal in test [13]; 234 ECL signal in [14]; 277 ECL signal in test [15]; 444 ECL signal in [16]; 343 ECL signal in test [17]; 478 ECL signal in test [18]. The ECL signal was found to be 3110 ECL signal in [19]; 1920 ECL signal in [20]; 2440 ECL signal in test [21]; 803 ECL signal in test [22]; 569 ECL signal in test [23]; 655 ECL signal in [24].
